According to patent US20250034275A1 (CHIA TAI TIANQING PHARMACEUTICAL GROUP, published 2025):

Key:
[1] = target: human Trop-2 (on the surface of human cell lines) (human) (UniProt P09758); test: flow cytometry, OVCAR-3 cells, isotype control at 3 ug/mL (background)
[2] = target: human Trop-2 (on the surface of human cell lines) (human) (UniProt P09758); test: flow cytometry, NCI-H322 cells, isotype control at 3 ug/mL (background)
[3] = target: human Trop-2 (on the surface of human cell lines) (human) (UniProt P09758); test: flow cytometry, Capan-1 cells, isotype control at 3 ug/mL (background)
[4] = target: human Trop-2 (on the surface of human cell lines) (human) (UniProt P09758); test: flow cytometry, PC-3 cells, isotype control at 3 ug/mL (background)
[5] = target: human Trop-2 (on the surface of human cell lines) (human) (UniProt P09758); test: flow cytometry, HUVEC cells, isotype control at 3 ug/mL (background)
[6] = target: human Trop-2 (on the surface of human cell lines) (human) (UniProt P09758); test: flow cytometry, HCC38 cells, isotype control at 3 ug/mL (background)
[7] = target: human Trop-2 (on the surface of human cell lines) (human) (UniProt P09758); test: flow cytometry, HCC1806 cells, isotype control at 3 ug/mL (background)

human IgG1 control antibody
MFI [1]: 11800
MFI [2]: 21300
MFI [3]: 65600
MFI [4]: 8920
MFI [5]: 20500
MFI [6]: 32400
MFI [7]: 16200
